Data taken from the supplement of paper PMC10126150.
± gives the standard deviation of the averaged measurements.

The sequences below were run on ATP (assay: switch fluorescence ratio, 500 uM ATP over buffer (Cy3 cluster intensity, sum of 5 cycles each) (fold (ratio)); higher = stronger signal-on switching upon ATP binding; sequences stand for … in TCGTCGGCAGCGTCAGATGTGTATAAGAGACAGTTTTTTTTTTTTTTTTTTTTTTTTT…TC). Conditions: aptamer strand: ATP DNA aptamer (quencher-CACCTGGGGGAGTATTGCGGAGGAAGG + anchor), 100 nM annealed; ATP concentration: 500 uM.
In short: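 Clusters with intensities outside 100-1000 RFU were excluded. The remaining Cy3-labelled switching-strand clusters on a modified Illumina MiSeq flow-cell had been annealed to 100 nM quencher-labelled ATP aptamer and imaged in selection buffer, then after 15 min with 500 uM ATP at 22 °C, for five cycles separated by NaOH stripping and re-annealing. The fluorescence ratio, averaged per switch-domain sequence, is each cluster's summed target-cycle Cy3 intensity over its summed buffer-cycle Cy3 intensity.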
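Further: ATP exposure 15 min at 22 °C before imaging.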

| Sequence | switch fluorescence ratio |
| --- | --- |
| GGGGGTGACC | 1.02 ± 0.025 |
| TCCTGGGGGG | 1.04 ± 0.046 |
| CCAATTGGTG | 1.03 ± 0.016 |
| AAGGGTCTCG | 1.03 ± 0.095 |
| TCGTCAGGTG | 2.48 ± 0.084 |
| TAACGTATGT | 0.9929 ± 0.0046 |
| GAGTTAGTGT | 1.03 ± 0.017 |
| CGGGTTTAAT | 0.94 ± 0.029 |
| GTTGTACGAA | 1.19 ± 0.28 |
| GAGGGGACAG | 0.979 ± 0.035 |
| TAGTAATCGT | 1.01 ± 0.063 |
| TGCGGGTGGT | 1.035 ± 0.0014 |
| TATCCAGTGG | 1.01 ± 0.054 |
| TATTTTGTGA | 0.952 ± 0.018 |
| GCGCGCTAAG | 0.977 ± 0.035 |
| CGTGTTGGGT | 0.998 ± 0.048 |
| GGGTAGTAGT | 0.958 ± 0.035 |
| TCTGGGCTTG | 0.999 ± 0.015 |
| ATGATGGACG | 1.03 ± 0.062 |
| CATAACTAAA | 1 ± 0.012 |
| TGAGGGTTGT | 1.01 ± 0.046 |
| GCAGGGTTCT | 0.9721 ± 0.0021 |
| GGGTCATGTC | 0.934 ± 0.052 |

| Sequence | switch fluorescence ratio |
| --- | --- |
| TATTCCTTTT | 1.01 ± 0.013 |
| CTTTTCAGGT | 0.998 ± 0.019 |
| GGCTAAAAAC | 1 ± 0.039 |
| ACCAAGTTTT | 1.019 ± 0.0072 |
| GGCGTACAAA | 0.985 ± 0.019 |
| TAGTTAGTGA | 0.986 ± 0.034 |
| ATTATCGGGA | 1.02 ± 0.0017 |
| CGACCTACAG | 1.02 ± 0.02 |
| TTCGTATCGG | 0.978 ± 0.012 |
| CCAGCCGTCG | 1.07 ± 0.04 |
| TGGGGACACT | 1.02 ± 0.016 |
| ATAAAATAAA | 0.976 ± 0.031 |
| TCTTACGCCA | 1.06 ± 0.016 |
| ACATGTAGAG | 1 ± 0.0056 |
| CTAATTCGAG | 0.9919 ± 0.0026 |
| GAGGCTGTGC | 1.052 ± 0.0057 |
| TTGAGTTGGG | 0.973 ± 0.041 |
| AGGAGATGGG | 1.02 ± 0.034 |
| TGTTGTATGT | 0.994 ± 0.015 |
| TATATAACGG | 1.036 ± 0.01 |
| GGATTTGGTA | 0.978 ± 0.032 |
| AGGCCTGAAA | 0.983 ± 0.07 |
| GGACTATGCT | 0.962 ± 0.011 |

| Sequence | switch fluorescence ratio |
| --- | --- |
| ACTTATTAAA | 1.03 ± 0.034 |
| AGAATGTACG | 1.015 ± 0.0078 |
| ATTGTTCAAA | 1 ± 0.015 |
| AAAAGACGGG | 1.03 ± 0.022 |
| AGTTGGATC | 1.02 ± 0.015 |
| CTTTTCTGAT | 0.993 ± 0.04 |
| TGAGTATAGT | 1.01 ± 0.035 |
| ATTCAGTCAT | 0.9901 ± 0.0021 |
| TCTGGGGGGT | 1.02 ± 0.035 |
| AAATCTGTCA | 1.03 ± 0.02 |
| GATTATTAGT | 1.012 ± 0.01 |
| TTTTGCGAAC | 1.94 ± 1.2 |
| ATTTTGGAGC | 0.999 ± 0.058 |
| AATCGAAAGA | 1.02 ± 0.039 |
| GGAGTTAGGC | 1 ± 0.04 |
| CAGGGACGGC | 1.02 ± 0.012 |
| GGGGTTCGTC | 1 ± 0.044 |
| GGGGCATAAG | 1.01 ± 0.013 |
| CTTGTCATCT | 1.005 ± 0.0061 |
| CTTTTAGAAC | 0.986 ± 0.027 |
| ATAGGGAGGT | 1.01 ± 0.032 |
| GGGATGGTGG | 0.991 ± 0.024 |
| GGGTTCCATT | 1.023 ± 0.0075 |

| Sequence | switch fluorescence ratio |
| --- | --- |
| GCCACGAGGG | 1.025 ± 0.0062 |
| AATATTTCCA | 0.974 ± 0.023 |
| TTGCTGTGTG | 1.011 ± 0.0042 |
| TGTGAAACCT | 1.95 ± 1.2 |
| CGTTTAGTCA | 1.01 ± 0.023 |
| TGGACAGACA | 1.111 ± 0.0046 |
| TGTGGGTTCC | 1.06 ± 0.11 |
| GGTATTGGAC | 0.9947 ± 0.0058 |
| TTGGTGGGGC | 0.98 ± 0.02 |
| AGAGGTGGGG | 0.968 ± 0.012 |
| GAGGGGCGAC | 0.974 ± 0.032 |
| ATTTTCTCCG | 1.43 ± 0.63 |
| AAATAAGGAG | 1.02 ± 0.033 |
| AATTTTTAT | 1 ± 0.0022 |
| ATTTTTGATC | 1.02 ± 0.032 |
| AGGGGTGGGG | 1 ± 0.029 |
| GAATTTAAAG | 1.007 ± 0.0018 |
| GGGAGGAGGA | 0.974 ± 0.026 |
| AAATGACGGC | 0.988 ± 0.15 |
| TTTGGGATCG | 0.98 ± 0.045 |
| GTCCTTTCTG | 0.988 ± 0.014 |
| TGATGGATGA | 1.01 ± 0.02 |
| ATTAGACAGC | 1.01 ± 0.032 |

| Sequence | switch fluorescence ratio |
| --- | --- |
| CATGATAGCG | 0.9981 ± 0.0019 |
| ATTTGGGAGT | 1 ± 0.025 |
| AATCCTTGAG | 1.02 ± 0.034 |
| GGCTGTGTTT | 0.981 ± 0.028 |
| CGACTCGAAA | 1.02 ± 0.016 |
| AGGCCGGAAG | 0.9945 ± 0.0095 |
| CCAATGCAGC | 3.22 ± 0.27 |
| TGGGAAGTGT | 0.9621 ± 0.0013 |
| GCCGGGGCCT | 1.03 ± 0.042 |
| AGAGGGGAT | 1 ± 0.021 |
| CTAATATCTC | 1.016 ± 0.01 |
| GTATCTAGTT | 0.996 ± 0.024 |
| TTTTTAGTAT | 1.01 ± 0.035 |
| TTAACGCCGC | 1.13 ± 0.069 |
| CGCGATTTTA | 1.04 ± 0.019 |
| TATGTCATCG | 1.01 ± 0.028 |
| AGGGGTATTG | 0.993 ± 0.017 |
| ATATACGGTA | 1.15 ± 0.03 |
| AGAGGCGTAT | 0.974 ± 0.011 |
| TTTGCTGGCG | 0.935 ± 0.024 |
| GGTTCAGCTT | 0.981 ± 0.013 |
| ACGTAGTTTC | 1.05 ± 0.023 |
| GAGTTTTTTA | 0.98 ± 0.046 |

| Sequence | switch fluorescence ratio |
| --- | --- |
| TCGTTTTAGC | 1.004 ± 0.0032 |
| CGTAAGCGAG | 1.03 ± 0.062 |
| GTGTTTGAAA | 0.998 ± 0.027 |
| TTGAGTGGGC | 0.979 ± 0.031 |
| TAGATGGGGG | 1 ± 0.011 |
| CGGGGTAGTT | 1.01 ± 0.004 |
| GACGGGATTG | 1.015 ± 0.006 |
| TGGCGCCATT | 1 ± 0.072 |
| GATGGCCAGC | 1.01 ± 0.041 |
| GCAAATGGAA | 0.982 ± 0.042 |
| GGCAGCGTGG | 0.994 ± 0.041 |
| TATGGTCATA | 0.999 ± 0.032 |
| TGCACCAGG | 3.29 ± 0.44 |
| ATTATAACTC | 0.957 ± 0.036 |
| ACCAGCTACA | 1.09 ± 0.033 |
| AGGACAGCAT | 1.07 ± 0.023 |
| TTTCTACGTA | 1.13 ± 0.14 |
| ACGCGTCGGC | 1.06 ± 0.013 |
| TTTCTTAGTT | 1.04 ± 0.017 |
| ATTAAAGGTT | 0.99 ± 0.022 |
| ATGTGCCAGT | 0.962 ± 0.012 |
| TGGGGCAGCA | 1.01 ± 0.042 |
| CAGGCTTTTA | 0.983 ± 0.028 |

| Sequence | switch fluorescence ratio |
| --- | --- |
| AGGATGCTCA | 1.01 ± 0.011 |
| TTAGTTTCTG | 0.984 ± 0.046 |
| AGGGAGTGCT | 1.02 ± 0.013 |
| GATGCATGC | 1.22 ± 0.065 |
| GAAGGGCATA | 1.02 ± 0.019 |
| GGGTGACAAC | 1.002 ± 0.0084 |
| GTTAGTAAGG | 1.01 ± 0.041 |
| CGGGCCGCGG | 1.06 ± 0.083 |
| GCACGAGGGG | 0.979 ± 0.047 |
| GTGGGTAGTT | 0.99 ± 0.076 |
| TTTCCCTGTT | 1.05 ± 0.076 |
| CCCCGAAACT | 2.28 ± 1.5 |
| TCAGGTAATT | 1.03 ± 0.031 |
| TCCACCGA | 1.04 ± 0.017 |
| ATTGGAGGAT | 0.96195 ± 0.0005 |
| AAGTCCAAGA | 1.01 ± 0.033 |
| TAGGGGATTG | 1 ± 0.02 |
| GCTATTGAAA | 0.9922 ± 0.0018 |
| CGGCTAGTGC | 1.05 ± 0.042 |
